In the domain aggregation screens of Martell et al. (2025):

Assay: soluble fraction after stress (log2 fold change); higher = more stays soluble; pooled small domains, quantitative proteomics
Details: stress: pH 4
How it was run: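 Aggregation propensity is estimated from the fold change in each domain's soluble amount after acid stress. Pooled small-domain libraries were stressed at pH 4, and higher log2 values mean more stayed soluble.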

Sequence | soluble fraction (log2)
HMIINFDAIKLTTELNKYKRHKAIPNTFFDGTYTILDVRELYNDLTPKAQKIADELIEHYNVDVK | -1.69
HMEETLRALAKKISEKVLKSGRSTTLEPMNPYERRIIHSAVSEIEGVSSKSVGEEPYRKVVISSDNP | -0.0148
HMVNVLKNSTVIDLVKNNLSDALIISLIRRAKVDFSLMTDDVIELSGKGVSPAVIMEMRQAMIRQASEIQN | -0.183
HMGSEYPSNPLASRWAKGVRLYHDEWGYGVIQAARGSEPDDYVITVRFESGAEKSFLPKFQAHSLMIVKD | -0.974
HMQIIEVPYSEFLKKLESGQISEVSRDSYQIVFTDRSQPPIIYKTGLMEDPGLVDKMQEAGVTFTSP | -0.228
HMTGRVKWYDATKGFGFVTSDEGGDVFLPKGALPAGVADLKTGQRIEFGVVDSRKGAQALGVK | -0.22
HMTAVAAEQQAQDAYRQTAANNLNEIQAKYKLPDSESDDFFTFAYERGFTQEDFIDIGLVDKIMGDYV | -0.203
HMGAGFREAIPPALDGERIDRVVSLLAYVSRNRAAGALAAGSVSVDGEVVFQRSRRVREGEELVVTGFERE | -0.427
HMGAYITYEVKPGDTLWDIANKFPGVSADNIKTWNKVDELIKAGERLKINTQTITDYSPDKYPS | -0.575
HMKDGAKYFQLFGLLKNEINRGIYQSGQKIPGENELAEKYGMSRQTVRQALSLLEQESLIERRQGSGTYVR | 0.185
HMAFGTGTVTASSLRVREDASTSAATLDTLSKGSKVSVLADEQDGFYKVQIGEQVGYMSAEYLDVTE | -0.269
HMIADSSSIHQDAKQQLHSYLRTNIQPLMRAGKQLDLKDILHHVTIRKPKLVQQLGMKQVQHMVQVLLD | 0.184
HMPMTDYQLIRSNRRTIALQITRDARVVVRAPLYASEADIRRFVESHRAWIESHLDRQRARTD | 0.201
HMSTMTDAQRHLFANKLSQLPEMGKYSHGTESYQQFAVRIAEMLQTPKKFKELYPYLQKVGFKA | 0.0225
HMDTPPGLSPEEQAIIDIITTRGDATINELTASIDIPTPRLMGMLVDMEFRSLIAAIPGGRYRI | -1.42
HMGKAVTLEEARAIIQAKVPGASPDMIQIWEEHGDGRGRYEGELSYNNMKYEFEMDPKTGIIFDWNA | -0.189
HMIADPAKPDWTTILAPVTTGTTVTHKTFGQGTVTKLDKTKKYLTVSFAAGQKNFVFPNAFIDGFLK | -0.105
HMYGQEVKVLGLFGDRAFIKVDEKSAVIRIGQSHQNVQLKSISNQKAILLVDNKDIALGLGDSYQSA | -0.397
HMIQVNKTQALIIEEMRDNPNITLLELQKTLSLGRTAIQNNVSSLRKRQIIKRVGSNKNGYWEVTDK | 0.22

Sequence | soluble fraction (log2)
HMAIELTPRQLDIIELVRKHAPITGEQIAELLGVTRPSIRSDLGLLVMLGYIDAKPKVGYFAGPRM | -0.893
HMQESTPGEGYKWREDVLLRVMSQNGIDESLRDEFVRHAVNYDIDDNMYLKKAEIESAAEAWVLENS | -1.92
HMNTELFTKNLFNKLEVLLGEKNWKSKTAQLLNISSDAFYKKIRNESQLNLHELLLIKDTFKISIDALLDE | -0.929
HMEFTKSPLDEIAGVGPARKRALLAAFGTAKAVSQAALADLEKTPGVNAATARLVYAHFHEK | 0.22
HMDIINLADNIARLRRRRQITQEELADYLGVTKAAVSKWENRQTMPDILLLPRLAGLFEVTIDELVGY | -1.72
HMIERVLRTEEHIEAFAGEEVEAKLFAPIDGKKTLRGILGGIEDGRVILTVGDTEYRIEHAKISRLTTVFD | -0.712
HMNETNKMPNLVNQTDSSAIAQLNAMELGLKITTKEESSETVLAGYVIRTEPAADTELTKNQAVTVYVS | 0.0693
HMLGARSLNEAVARNLPQILAKYQLIHIAGKNGFNPELQGRGYVQYEYVDTELKDLMALADIVVSR | -0.0512
HMRLYTQDVAVLNRDVIQGEVITSDMVTTVNVHKRTVPTGALNLSEIPGNVAKFNIPASIPITASMVTK | -0.171
HMSGMNSDHRVNGNIHTFLIQHDLGTKWSVFTEQLLKQVFRSFLPDKELNFQTTDSTVILKVSLGSDFNEH | -0.19
HMHKLTIEEALNYKTPANAGGPYSGKPFRDIYDQRGKAAVISFAKYYLSKATPEDPMVEVYRTLLDGAMEL | 0.102
HMAAENAVGARVKALREAMDLSLRDLSERSGVSPTMLSQVERGSTSPTLAVAEKIAAGLDLSLSQLLRL | 0.124
HMTKTEFLNLLEQRLFVLNDNERADLLSEYKQHIEMKIQSGLSEEEAIADFGDPEELIKELLEAY | -1.13
HMTIGEALLNLRKQLGLNQTEMAANVVSTSFYSKVERNIHDIGTKDLLQILNKHQINATYFFENLN | -0.446
HMGSVNDNVQKLTSQIGETTETGDTITPEDVELYKKMVDPLSTMAQKLEAAEILKLKGIIGSNGIIV | -0.0476
HMPIDNTLLSRITSLGVSTTEAEKLISKHGEEALKANLEVVEERLSKPNLPLLDSPAAYLKTALKNG | 0.224
HMRRSSQQLTLTEVSTIKEMVTSEEYRHVPTGTLALLAQRLRKVFASSSTWYRLVRIYKWRRPRGRIH | 0.296
HMTVTISPGYEGRLLRSYLKNTLSLSTSALARLKTREDGITVNGVRVTVRYVLHAGDLLQLAVD | 0.22
HMEPDEQAVKALIAEIDKLSKEKLTLKHEKKLKELREIYDDFTEEEKKLVTNYDILVKMEKRMEVLKKQEG | 0.19
